This passage reports pKd results from PMC9482650, “Quantitative fragmentomics allow affinity mapping of interactomes” (Nature Communications, 2022).

Some targets named below: Inadl_3, Q8NI35; LIMK2, P53671; IL16_1, Q14005; NHERF4_4, Q86UT5; DLG4_2, P78352; LAP2, Q96RT1; FRMPD2_1, Q68DX3; LNX1_3, Q8TBB1; NHERF4_2, Q86UT5.
Holding throughout (experiment): holdup assay
What all share (set-up): key: below the threshold = too weak to quantify, mostly under pKd 3.1 to 4

A further assay has as its target T1, MPDZ_10, O75970.
T1 sequence (O75970 1624-1722, limits assumed, looked up): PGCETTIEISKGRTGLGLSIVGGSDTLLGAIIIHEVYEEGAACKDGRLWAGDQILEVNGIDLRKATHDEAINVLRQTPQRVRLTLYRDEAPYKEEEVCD

A further assay deals with T2, PDZD2_2, O15018.
T2 sequence (O15018 329-429, limits assumed, looked up): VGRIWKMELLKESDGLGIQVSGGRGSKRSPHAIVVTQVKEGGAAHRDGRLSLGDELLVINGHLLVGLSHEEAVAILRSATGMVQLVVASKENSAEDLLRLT

A further assay deals with T3, APBA1_2, Q02410.
T3 sequence (Q02410 742-832, limits assumed, looked up): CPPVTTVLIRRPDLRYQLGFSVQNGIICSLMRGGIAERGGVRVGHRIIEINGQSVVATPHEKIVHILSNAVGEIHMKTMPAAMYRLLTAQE

Another assay concerns the target T4, TX1BP3, O14907.
T4 sequence (O14907 10-122, limits assumed, looked up): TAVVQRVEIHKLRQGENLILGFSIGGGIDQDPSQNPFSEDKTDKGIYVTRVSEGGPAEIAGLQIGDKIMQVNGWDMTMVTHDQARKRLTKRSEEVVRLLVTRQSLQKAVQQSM

In another assay the target is T5, LNX2_3, Q8N448.
T5 sequence (Q8N448 463-564, limits assumed, looked up): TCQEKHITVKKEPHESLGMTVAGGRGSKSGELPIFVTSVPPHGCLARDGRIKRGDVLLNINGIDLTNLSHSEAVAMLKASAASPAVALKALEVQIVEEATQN

The target of a further assay is T6, NHERF3_3, Q5T2W1.
T6 sequence (Q5T2W1 238-333, limits assumed, looked up): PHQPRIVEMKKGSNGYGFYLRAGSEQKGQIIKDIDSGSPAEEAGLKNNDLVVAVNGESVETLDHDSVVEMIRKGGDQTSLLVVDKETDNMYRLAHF

Another assay deals with T7, APBA2_2, Q99767.
T7 sequence (Q99767 654-744, limits assumed, looked up): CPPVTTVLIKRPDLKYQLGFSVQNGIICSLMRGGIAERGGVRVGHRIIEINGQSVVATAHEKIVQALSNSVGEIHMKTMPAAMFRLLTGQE

For a further assay, the target named is T8, CARD11, Q9BXL7.
T8 sequence (Q9BXL7 662-765, limits assumed, looked up): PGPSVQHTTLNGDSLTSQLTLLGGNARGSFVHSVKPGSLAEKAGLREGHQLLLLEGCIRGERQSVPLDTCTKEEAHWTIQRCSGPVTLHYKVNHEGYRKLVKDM

Another assay deals with T9, FRMPD1, Q5SYB0.
T9 sequence (Q5SYB0 52-145, limits assumed, looked up): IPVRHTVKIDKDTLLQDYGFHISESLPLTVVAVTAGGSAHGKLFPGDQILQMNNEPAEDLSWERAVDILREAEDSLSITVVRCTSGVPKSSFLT

The target of another assay is T10, MPP7, Q5T2T1.
T10 sequence (Q5T2T1 134-230, limits assumed, looked up): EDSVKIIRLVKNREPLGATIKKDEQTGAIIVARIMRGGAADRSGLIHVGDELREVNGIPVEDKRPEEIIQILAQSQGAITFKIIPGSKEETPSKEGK

Another assay has as its target T11, NHERF3_4, Q5T2W1.
T11 sequence (Q5T2W1 373-468, limits assumed, looked up): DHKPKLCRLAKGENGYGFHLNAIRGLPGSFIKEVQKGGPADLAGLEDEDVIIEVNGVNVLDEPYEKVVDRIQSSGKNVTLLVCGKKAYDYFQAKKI

A further assay deals with T12, DFNB31_2, Q9P202.
T12 sequence (Q9P202 274-371, limits assumed, looked up): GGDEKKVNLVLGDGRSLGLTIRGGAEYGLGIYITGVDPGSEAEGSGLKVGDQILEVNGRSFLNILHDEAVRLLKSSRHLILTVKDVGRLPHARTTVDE

A further assay addresses T13, SHANK1, Q9Y566.
T13 sequence (Q9Y566 658-767, limits assumed, looked up): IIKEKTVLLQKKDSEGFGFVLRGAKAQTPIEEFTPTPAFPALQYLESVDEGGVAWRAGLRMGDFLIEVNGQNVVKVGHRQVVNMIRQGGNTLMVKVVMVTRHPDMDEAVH

Another assay addresses T14, MPP6, Q9NZW5.
T14 sequence (Q9NZW5 125-219, limits assumed, looked up): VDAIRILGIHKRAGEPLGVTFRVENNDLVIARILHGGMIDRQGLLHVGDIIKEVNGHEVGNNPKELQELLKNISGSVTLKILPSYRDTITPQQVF

The mark [1] stands for this setting: plain residues with an end cap or a label only (N-terminal biotin on a linker: ahx).
Where [2] appears, read: plain residues with an end cap or a label only (N-terminal biotin on a linker: ttds).

Chain of LAP2, Q96RT1 (Q96RT1 other isoform, or with tags, fused parts or gaps): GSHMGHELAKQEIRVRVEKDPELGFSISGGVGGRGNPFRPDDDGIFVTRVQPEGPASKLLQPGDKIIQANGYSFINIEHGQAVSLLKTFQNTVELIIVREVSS
Chain of FRMPD2_1, Q68DX3 (Q68DX3 770-861): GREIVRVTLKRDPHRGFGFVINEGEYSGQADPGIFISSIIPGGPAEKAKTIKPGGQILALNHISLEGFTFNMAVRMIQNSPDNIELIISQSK
Chain of NHERF4_2, Q86UT5 (Q86UT5 220-308): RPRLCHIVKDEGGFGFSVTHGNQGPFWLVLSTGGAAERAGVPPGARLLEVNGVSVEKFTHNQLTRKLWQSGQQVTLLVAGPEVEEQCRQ
Chain of NHERF4_4, Q86UT5 (Q86UT5 464-550): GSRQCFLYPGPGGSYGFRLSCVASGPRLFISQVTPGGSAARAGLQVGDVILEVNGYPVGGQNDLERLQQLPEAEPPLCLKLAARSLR
Chain of DLG4_2, P78352 (P78352 155-259): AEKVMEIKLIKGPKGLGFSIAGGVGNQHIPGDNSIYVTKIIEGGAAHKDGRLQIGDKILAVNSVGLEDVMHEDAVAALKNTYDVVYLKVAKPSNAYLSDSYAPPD
Chain of IL16_1, Q14005 (Q14005 210-306): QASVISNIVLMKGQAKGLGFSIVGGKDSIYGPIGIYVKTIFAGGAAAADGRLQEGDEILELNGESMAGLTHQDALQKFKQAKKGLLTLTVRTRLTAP
Chain of Inadl_3, Q8NI35 (Q8NI35 359-469): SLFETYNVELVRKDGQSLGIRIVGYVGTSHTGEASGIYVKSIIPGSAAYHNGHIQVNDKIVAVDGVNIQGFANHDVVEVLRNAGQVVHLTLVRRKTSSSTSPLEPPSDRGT
Chain of LIMK2, P53671 (P53671 143-248): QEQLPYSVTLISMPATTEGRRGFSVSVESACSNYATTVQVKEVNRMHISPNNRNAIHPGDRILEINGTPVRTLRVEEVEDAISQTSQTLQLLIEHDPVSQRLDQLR
Chain of LNX1_3, Q8TBB1 (Q8TBB1 500-596): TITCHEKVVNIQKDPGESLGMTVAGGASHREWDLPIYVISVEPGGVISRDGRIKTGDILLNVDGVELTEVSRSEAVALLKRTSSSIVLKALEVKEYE

One may read the pKd as −log10 of the Kd, conventionally taken in molar units. As for KKNKDKEYYV [NRXN1, Q9ULB1], the pKd entry in the assay with MPDZ_10, O75970 (setting [1]) was “below the threshold”; with PDZD2_2, O15018 (setting [1]), 3.99; with Inadl_3, Q8NI35 (setting [1]), “below the threshold”; in the assay with LIMK2, P53671 (setting [1]) it was “below the threshold”; in the assay with IL16_1, Q14005 (setting [1]), “below the threshold”; with APBA1_2, Q02410 (setting [1]) it was 3.62. For the same molecule, the pKd entry is given as “below the threshold” with NHERF4_4, Q86UT5 (setting [1]); “below the threshold” with TX1BP3, O14907 (setting [1]); “below the threshold” in the assay with DLG4_2, P78352 (setting [1]); “below the threshold” with LNX2_3, Q8N448 (setting [1]); “below the threshold” with LAP2, Q96RT1 (setting [1]); “below the threshold” in the assay with NHERF3_3, Q5T2W1 (setting [1]). The pKd result in the assay with APBA2_2, Q99767 (setting [1]) is “below the threshold”; in the assay with FRMPD2_1, Q68DX3 (setting [1]) it was “below the threshold”; with CARD11, Q9BXL7 (setting [1]) it was “below the threshold”; with LNX1_3, Q8TBB1 (setting [1]), “below the threshold”; with FRMPD1, Q5SYB0 (setting [1]), “below the threshold”; with MPP7, Q5T2T1 (setting [1]) it was 4.29. The negative-log Kd (pKd) entry is recorded as “below the threshold” with NHERF3_4, Q5T2W1 (setting [1]); “below the threshold” in the assay with DFNB31_2, Q9P202 (setting [1]); “below the threshold” in the assay with SHANK1, Q9Y566 (setting [1]); “below the threshold” with NHERF4_2, Q86UT5 (setting [1]); “below the threshold” with MPP6, Q9NZW5 (setting [1]).

As to RRVRKLPSTTL [RPS6KA1, Q15418], the pKd in the assay with MPDZ_10, O75970 (setting [2]) was 3.76; in the assay with PDZD2_2, O15018 (setting [2]), 3.55; with Inadl_3, Q8NI35 (setting [2]) it was “below the threshold”; in the assay with LIMK2, P53671 (setting [2]), “below the threshold”; in the assay with IL16_1, Q14005 (setting [2]), “below the threshold”; with APBA1_2, Q02410 (setting [2]), “below the threshold”. Besides, the pKd with NHERF4_4, Q86UT5 (setting [2]) is 3.49; in the assay with TX1BP3, O14907 (setting [2]) it was “below the threshold”; with DLG4_2, P78352 (setting [2]) it was “below the threshold”; with LNX2_3, Q8N448 (setting [2]) it was 3.71; with LAP2, Q96RT1 (setting [2]), “below the threshold”; in the assay with NHERF3_3, Q5T2W1 (setting [2]) it was 3.61. Besides, the pKd result with APBA2_2, Q99767 (setting [2]) was “below the threshold”; in the assay with FRMPD2_1, Q68DX3 (setting [2]) it was “below the threshold”; with CARD11, Q9BXL7 (setting [2]), “below the threshold”; in the assay with LNX1_3, Q8TBB1 (setting [2]), 3.66; with FRMPD1, Q5SYB0 (setting [2]), “below the threshold”; with MPP7, Q5T2T1 (setting [2]), 3.61. The pKd in the assay with NHERF3_4, Q5T2W1 (setting [2]) was 3.65; in the assay with DFNB31_2, Q9P202 (setting [2]) it was “below the threshold”; with SHANK1, Q9Y566 (setting [2]) it was 4.17; in the assay with NHERF4_2, Q86UT5 (setting [2]) it was “below the threshold”; with MPP6, Q9NZW5 (setting [2]) it was 3.73.

On to CNTVTVETVV [MAS1, P04201], for which the pKd with MPDZ_10, O75970 (setting [2]) is 3.51; with PDZD2_2, O15018 (setting [2]) it was 3.59; with Inadl_3, Q8NI35 (setting [2]) it was 3.75; with LIMK2, P53671 (setting [2]), 3.7; with IL16_1, Q14005 (setting [2]) it was “below the threshold”; with APBA1_2, Q02410 (setting [2]) it was “below the threshold”. The pKd entry is “below the threshold” with NHERF4_4, Q86UT5 (setting [2]); “below the threshold” with TX1BP3, O14907 (setting [2]); 4.45 with DLG4_2, P78352 (setting [2]); “below the threshold” with LNX2_3, Q8N448 (setting [2]); 3.48 with LAP2, Q96RT1 (setting [2]); 3.54 with NHERF3_3, Q5T2W1 (setting [2]). For the same molecule, the pKd entry with APBA2_2, Q99767 (setting [2]) is reported as “below the threshold”; in the assay with FRMPD2_1, Q68DX3 (setting [2]), “below the threshold”; with CARD11, Q9BXL7 (setting [2]), “below the threshold”; with LNX1_3, Q8TBB1 (setting [2]) it was “below the threshold”; with FRMPD1, Q5SYB0 (setting [2]), “below the threshold”; in the assay with MPP7, Q5T2T1 (setting [2]), “below the threshold”. The pKd was 3.54 with NHERF3_4, Q5T2W1 (setting [2]); “below the threshold” in the assay with DFNB31_2, Q9P202 (setting [2]); “below the threshold” with SHANK1, Q9Y566 (setting [2]); “below the threshold” in the assay with NHERF4_2, Q86UT5 (setting [2]); 3.54 in the assay with MPP6, Q9NZW5 (setting [2]).

On to QPGTPTRTAV [MAP2K2, P36507], for which the pKd with MPDZ_10, O75970 (setting [2]) is 3.59; in the assay with PDZD2_2, O15018 (setting [2]) it was 3.79; in the assay with Inadl_3, Q8NI35 (setting [2]) it was “below the threshold”; with LIMK2, P53671 (setting [2]), “below the threshold”; in the assay with IL16_1, Q14005 (setting [2]) it was “below the threshold”; with APBA1_2, Q02410 (setting [2]) it was 3.62. In addition, the pKd result with NHERF4_4, Q86UT5 (setting [2]) was “below the threshold”; in the assay with TX1BP3, O14907 (setting [2]), 3.97; with DLG4_2, P78352 (setting [2]), 4.12; with LNX2_3, Q8N448 (setting [2]), “below the threshold”; with LAP2, Q96RT1 (setting [2]), “below the threshold”; with NHERF3_3, Q5T2W1 (setting [2]), “below the threshold”. In addition, the pKd entry with APBA2_2, Q99767 (setting [2]) is “below the threshold”; with FRMPD2_1, Q68DX3 (setting [2]), “below the threshold”; with CARD11, Q9BXL7 (setting [2]), “below the threshold”; in the assay with LNX1_3, Q8TBB1 (setting [2]), 3.67; with FRMPD1, Q5SYB0 (setting [2]), “below the threshold”; in the assay with MPP7, Q5T2T1 (setting [2]) it was “below the threshold”. The pKd entry with NHERF3_4, Q5T2W1 (setting [2]) was “below the threshold”; in the assay with DFNB31_2, Q9P202 (setting [2]) it was “below the threshold”; with SHANK1, Q9Y566 (setting [2]), 4.17; with NHERF4_2, Q86UT5 (setting [2]), “below the threshold”; with MPP6, Q9NZW5 (setting [2]), 3.52.
